Target: human coxsackievirus and adenovirus receptor on CHO-CAR cells (human) (UniProt P78310)

## soluble recombinant HAdV-5 fiber knob Y477A (from UniProt P11818 1-581) (domain or fragment)
  inhibition of HAdV-5-EGFP transduction of CHO-CAR cells (EGFP-positive cells by flow cytometry) after preincubation with FK*, 0.0001 to 100 μg/10^5 cells, 1 h at 4°C (μg/10^5 cells): > 100
